Assay results published in US11357847B2, “Modified HSV gD protein and vaccine containing same” (KM Biologics Co., Ltd., priority 2017, dated 2022).
Residue numbers refer to the chain shown, from its start. Names and notes keep the numbering of the source.

What was measured:
[1] = system: various anti-gD2 antibodies; assay: Reactivity of gD variants with anti-gD2 antibodies (competitive ELISA); type: binding, human; settings: for Reactivity with anti-gD2 antibody 1 / Reactivity with anti-gD2 antibody 5 / Reactivity with anti-gD2 antibody 13 / Reactivity with anti-gD2 antibody 72 / Reactivity with anti-gD2 antibody 75 / Reactivity with anti-gD2 antibody 78 / Reactivity with anti-gD2 antibody 82: immobilized gD variant; for Relative reactivity with antibody No. 82 (gD1-315 wild-type set to 1): FIG. 13
Source text: Each anti-gD2 monoclonal antibody and each gD variant were expressed using an Expi293 expression system.

HSV-2 MS strain = assay: Mouse infection-prevention test of modified gD (genital herpes infection model); type: in vivo, BALB/c mice; design: key to Determination (vs gD1-315) / Determination# (vs gD1-315): ++: minimum effective dose based on the Significant difference test in three-fold common ratio relative to gD1-315(WT) of two or more doses stronger; +: those of one dose stronger; ±: those of an equivalent value
Method: Immunogenicity test of the modified gD antigen was performed using the wild-type gD antigen gD1-315 (WT) as a positive control and saline as a negative control. A predetermined amount of antigen was dissolved in saline for injection (saline) with MPLA (10 μg/mouse) and CpG (1 μg/mouse) and immunized to mice at a volume of 200 μL/mouse. BALB/c mice (5 weeks old, female) were used for the study and immunized subcutaneously in back at 2-week intervals for a total of 3 times (N=4 cases per group). Two weeks after the final immunization (third dose), blood was collected and serum was prepared for each individual. The prepared serum was serially diluted and assessed for neutralizing antibody-inducing activity against HSV-2 (50% plaque number-reducing activity).
An infection-prevention test in the preventive administration of modified gD antigen was performed using a mouse genital herpes infection model. Similar to the mouse immunogenicity test described above, mice were immunized with the number of N=10 cases per group. Depo-Provera was inoculated subcutaneously at 2 mg/mouse 6 days prior to viral inoculation to improve the multiplicity of infection upon viral inoculation 2 weeks after final immunization (third dose). 5×10^5 PFU/20 μL HSV-2 MS strain was inoculated transvaginally under anesthesia and observed for 21 days. Infection prevention ability was evaluated using survival time (survival rate) as index.
The infection model of the mouse genital herpes infection model was used to evaluate infection prevention ability of various modified gD in preventive administration. The number of animal cases in each group was set to n=10, and wild-type gD (gD1-315) was used as a positive control and saline was used as a negative control. The experiments were performed a total of four times (experiments 1-4) and four doses of 0.1 μg/mouse/time, 0.03 μg/mouse/time, 0.01 μg/mouse/time and 0.003 μg/mouse/time were set for all of the positive control, negative control, and subject modified gD antigen. Depo-Provera was inoculated subcutaneously at 2 mg/mouse 6 days prior to viral inoculation to improve the multiplicity of infection upon viral inoculation 2 weeks after final immunization (third dose). 5×10^5 PFU/20 HSV-2 MS strain was inoculated transvaginally under anesthesia and observed for 21 days. Infection prevention ability was evaluated using survival time (survival rate) as index. Mean values of those were plotted in the graph. A Significant difference test for the negative control group was performed by the Kaplan-Meier method, and those with a minimum effective dose based on the Significant difference test in three-fold common ratio relative to wild type gD of two or more doses stronger were determined to be “++”, those of one dose stronger were determined to be “+”, and those of an equivalent value were determined to be “±”.

[2] = Experiment 2, 0.003 μg/head/time
[3] = Experiment 2, 0.01 μg/head/time
[4] = Experiment 2, 0.03 μg/head/time
[5] = Experiment 1, 0.003 μg/head/time
[6] = Experiment 1, 0.01 μg/head/time
[7] = Experiment 1, 0.03 μg/head/time
[8] = Experiment 4, 0.01 μg/head/time
[9] = Experiment 4, 0.03 μg/head/time
[10] = Experiment 4, fourth dose line, 0.03 μg/head/time

B1: gD1-315V (protein)
chain: KYALADPSLKMADPNRFRGKNLPVLDQLTDPPGVKRVYHIQPSLEDPFQPPSIPITVYYAVLERACRSVLLHAPSEAPQIVRGASDEARKHTYNLTIAWYRMGDNCAIPITVMEYTECPYNKSLGVCPIRTQPRWSYYDSFSAVSEDNLGFLMHAPAFETAGTYLRLVKINDWTEITQFILEHRARASCKYALPLRIPPAACLTSKAYQQGVTVDSIGMLPRFIPENQRTWALYSLKIAGWHGPKPPYTSTLLPPELSDTTNATQPELVPEDPEDSALLEDPAGTVSSQIPPNWHIPSIQDVAPHHAPAAPSNPGHHHHHH
[1]
  Reactivity with anti-gD2 antibody 1: + ((+): 70% or more)
  Reactivity with anti-gD2 antibody 5: + ((+): 70% or more)
  Reactivity with anti-gD2 antibody 13: + ((+): 70% or more)
  Reactivity with anti-gD2 antibody 72: + ((+): 70% or more)
  Reactivity with anti-gD2 antibody 75: + ((+): 70% or more)
  Reactivity with anti-gD2 antibody 78: + ((+): 70% or more)
  Reactivity with anti-gD2 antibody 82: + ((+): 70% or more)

B2: gD1-315v5V: gD1-315 with glycochains at SC-A, SC-F and V231W (protein)
chain: B1 chain with P50N, P51A, R186N
[1]
  Reactivity with anti-gD2 antibody 1: + ((+): 70% or more)
  Reactivity with anti-gD2 antibody 5: − ((−): less than 30%)
  Reactivity with anti-gD2 antibody 13: + ((+): 70% or more)
  Reactivity with anti-gD2 antibody 72: ± ((±): 30% or more and less than 70%)
  Reactivity with anti-gD2 antibody 75: ± ((±): 30% or more and less than 70%)
  Reactivity with anti-gD2 antibody 78: − ((−): less than 30%)
  Reactivity with anti-gD2 antibody 82: + ((+): 70% or more)

B3: gD1-315v3: gD1-315 with glycochain introduced at P50 (SC-F) (protein)
chain: B1 chain with P50N, P51A, W231V
[1]
  Reactivity with anti-gD2 antibody 1: + ((+): 70% or more)
  Reactivity with anti-gD2 antibody 5: − ((−): less than 30%)
  Reactivity with anti-gD2 antibody 13: + ((+): 70% or more)
  Reactivity with anti-gD2 antibody 72: − ((−): less than 30%)
  Reactivity with anti-gD2 antibody 75: − ((−): less than 30%)
  Reactivity with anti-gD2 antibody 78: − ((−): less than 30%)
  Reactivity with anti-gD2 antibody 82: + ((+): 70% or more)

B4: gD1-315v3-55V: Table 12: glycochain D, F, T cell epitope peptide and V231W (protein)
chain: KYALADPSLKMADPNRFRGKNLPVLDQLTDPPGVKRVYHIQPSLEDPFQNASIPITVYYAVLERACRSVLLHAPSEAPQIVRGASDEARKHTYNLTIAWYRMGDNCAIPITVMEYTECPYNKSLGVCPIRTQPRWSYYDSFSAVSEDNLGFLMHAPAFETAGTYLRLVKINDWTEITQFILEHRARASCKYALPLRIPPAACLTSKAYQQGVTVDSIGMLPRFIPENQRTWALYSLKIAGWHGPKPPYTSTLLPPELSDTTNATQPELVPEDPEDSALLEDPAGTVSSQIPPNWHIPSIQDVAPHHAPAAPSNPGGPGPGIAFWVRRRAQMAPKPLRIAFWVRRRAQMAPKPLRHHHHHH
modifications: left off: small tags and cut ends
HSV-2 MS strain; [2]
  Mean survival time: 7 days
  Significant difference test (vs saline): N.S.
HSV-2 MS strain; [3]
  Mean survival time: >16.5 days
  Significant difference test (vs saline): N.S.
HSV-2 MS strain; [4]
  Mean survival time: >22 days
  Significant difference test (vs saline): ** (** 0.001 = < p < 0.01)
HSV-2 MS strain; Experiment 2, 0.1 μg/head/time
  Mean survival time: >22 days
  Significant difference test (vs saline): *** (*** p < 0.001)
HSV-2 MS strain; Experiment 2, minimum effective dose relative to gD1-315(WT)
  Determination# (vs gD1-315): +
[1]
  Relative reactivity with antibody No. 82 (gD1-315 wild-type set to 1): slightly reduced
  Reactivity with anti-gD2 antibody 1: + ((+): 70% or more)
  Reactivity with anti-gD2 antibody 5: − ((−): less than 30%)
  Reactivity with anti-gD2 antibody 13: + ((+): 70% or more)
  Reactivity with anti-gD2 antibody 72: ± ((±): 30% or more and less than 70%)
  Reactivity with anti-gD2 antibody 75: ± ((±): 30% or more and less than 70%)
  Reactivity with anti-gD2 antibody 78: − ((−): less than 30%)
  Reactivity with anti-gD2 antibody 82: + ((+): 70% or more)

B5: gD1-315v5-55V: gD1-315 with glycochains at SC-A, SC-F, T cell epitope peptide DP5 and V231W (protein)
chain: B4 chain with R186N
modifications: left off: small tags and cut ends
HSV-2 MS strain; [5]
  Mean survival time: 10 days
  Significant difference test (vs saline): ** (** 0.001 = < p < 0.01)
HSV-2 MS strain; [6]
  Mean survival time: >21 days
  Significant difference test (vs saline): *** (*** p < 0.001)
HSV-2 MS strain; [7]
  Mean survival time: >21 days
  Significant difference test (vs saline): *** (*** p < 0.001)
HSV-2 MS strain; Experiment 1, 0.1 μg/head/time
  Mean survival time: >21 days
  Significant difference test (vs saline): *** (*** p < 0.001)
HSV-2 MS strain; Experiment 1, minimum effective dose relative to gD1-315(WT)
  Determination (vs gD1-315): ++
HSV-2 MS strain; [8]
  Mean survival time: >21 days
  Significant difference test (vs saline): * (* 0.01 = < p < 0.05)
HSV-2 MS strain; [9]
  Mean survival time: >21 days
  Significant difference test (vs saline): *** (*** p < 0.001)
HSV-2 MS strain; Experiment 4, 0.1 μg/head/time
  Mean survival time: >21 days
  Significant difference test (vs saline): *** (*** p < 0.001)
HSV-2 MS strain; [10]
  Mean survival time: 8.5 days
  Significant difference test (vs saline): N.S.
HSV-2 MS strain; Experiment 4, minimum effective dose relative to gD1-315(WT)
  Determination# (vs gD1-315): ++
[1]
  Relative reactivity with antibody No. 82 (gD1-315 wild-type set to 1): slightly reduced
  Reactivity with anti-gD2 antibody 1: + ((+): 70% or more)
  Reactivity with anti-gD2 antibody 5: − ((−): less than 30%)
  Reactivity with anti-gD2 antibody 13: + ((+): 70% or more)
  Reactivity with anti-gD2 antibody 72: + ((+): 70% or more)
  Reactivity with anti-gD2 antibody 75: − ((−): less than 30%)
  Reactivity with anti-gD2 antibody 78: − ((−): less than 30%)
  Reactivity with anti-gD2 antibody 82: + ((+): 70% or more)
